Data as given in patent US20060045881A1, “Anti-cancer vaccines” (Board of Regents, The University of Texas System, priority 2004, published 2006).

Biological target: HLA-A2.1 (HLA-A*0201) on the surface of T2 cells (human)

B1: Influenza B nucleoprotein peptide (aa 85-94), P04665 85-94 (peptide)
peptide: KLGEFYNQMM
modifications: not checked
With B1 the Median Channel of Fluorescence of HLA-A2 Expression on T2 (median channel of fluorescence) was 194.
